Data published in the nanobody polyreactivity screen of Harvey et al. (2022).

Assay: yeast display, Sf9 membrane polyspecificity reagent, FACS + sequencing; frameworks hold sequencing errors
Outline: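 Polyreactivity labels are assigned by the sorting gate from which each nanobody was recovered. The gates were low and high (top ~1%), set on anti-HA fluorescence for expression and streptavidin fluorescence for reagent binding. Before sorting, galactose-induced (36–48 hours) yeast display cells were stained for 1 hour at 4 °C with 10% biotinylated, detergent-solubilized Sf9 membrane reagent.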

Row | Sequence | polyreactivity (PSR sort gate)
1 | QVQLVESGGGLVQAGGSLRLSCAASGSTFPYNAMGWYRQAPGKERELVAAITWRAGRTYYADSVKGRFTSSRDNAKNTVYLQMNSLKPEDTAVYYCAKSYQRGVNHYEYWGQGTQVSVSS | high polyreactivity
2 | QVQLVESGGGLVQAGGSLRLSCAASGSTFPYNAMGWYRQAPGKERELVATIDRGSTTNYADSVKGRFTISRDNAKNTVYLQMNSLKPEDTAVYYCNAKFIWWYEKGGWNVSKYEYWGQGTQVTVSS | low polyreactivity
3 | QVQLVESGGGLVQAGGSLRLSCAASGSTFPYNARGWYRQAPGKETELVAAISSSGGSTYYADSVKGRFTISRDNAKNTVYLQMNSLKPVDTEVYYCNAVLRYSIYPSSSFSYVGYYYWGQGTQVSVSS | high polyreactivity
4 | QVQLVESGGGLVQAGGSLRLSCAASGSTFPYYAMGCYRQAPGKERELVAAISWSDANTYYADSVKGRFTISRDNAKNTVYLQMNSLKPEDTAVYYCAAEPYDRYVPYTGYGLNYWGQGTQVTVSS | low polyreactivity
5 | QVQLVESGGGLVQAGGSLRLSCAASGSTFPYYAMGWYRQAPGKERELVAAISSSGGSTYYADSVKGRFTISRDNAKNTVYLQMNSLKPEDTAVYYCATSSRYVDGYEMDYWGQGTQVSVSS | high polyreactivity
6 | QVQLVESGGGLVQAGGSLRLSCAASGSTFPYYTMGWYRQAPGKERELVAAIRYSGSSTYYADSVKGRFTISLDNAKNSVYLQMNSLKPEDTAVYSCAKTLWRRRGDRRYRVIEMDHWGQGTQVTVSS | low polyreactivity
7 | QVQLVESGGGLVQAGGSLRLSCAASGSTFPYYTMGWYRQAPGKERELVAAITWRGGRTYYADSVKGRFTISRDNAKYTVYLQMNSLKPEDTAVYYCNAYGIDTGDYWGQGTQVTVSS | high polyreactivity
8 | QVQLVESGGGLVQAGGSLRLSCAASGSTFQDYAMGWYRQAPGKERELVAAISKRGGRTYYADSVKGRFTISRDNAKNTVYLQMNSLKPEETAVYYCNTYPVPGGVTYSYTGFDYWGQGTQVTVSS | high polyreactivity
9 | QVQLVESGGGLVQAGGSLRLSCAASGSTFQFNAMGWYRQAPGKEREFVAAITSSAGRTYYADSVKGRFTISRDNAKNTVYLQMNSLKPEDTAVYYCAATFYRRYVDLGYWGQGTQVTVSS | high polyreactivity
10 | QVQLVESGGGLVQAGGSLRLSCAASGSTFQGNAMGWYRQAPGKERELVAAISSDGSTDYADSVKGRFTISRDNAKNTVYLQMNSLKPEDTAVYYCNRVSPGPDADLEFDYWGQGTQVTVSS | low polyreactivity
11 | QVQLVESGGGLVQAGGSLRLSCAASGSTFQIYAMGWYRQPPGKDRELVAANTSSSSTNYADSVKGRFTISRENAKNTVYLQMNSLKPEDTAVYYCAAAVSWRSNWYDYWGQGTQVTVSS | low polyreactivity
12 | QVQLVESGGGLVQAGGSLRLSCAASGSTFQPNAMGWYRQAPGKERELVAAITGGDNTNYADSVKGRFTISRDNAKNTVYLQMNSLKPEDTAVYYCAAGGLGSRWYVGYDYWGQGTQVTVSS | low polyreactivity
13 | QVQLVESGGGLVQAGGSLRLSCAASGSTFQPYAMGWYRQAPGKEREFVATISGSAGSTYYADSVKGRFKISRDNAKNTVYLQMNSLKPEDTAVYYCNADSGWFGYDYWGQGTQVTVSS | low polyreactivity
14 | QVQLVESGGGLVQAGGSLRLSCAASGSTFQQYAMGWYRQAPGKERELVAAISWRGGSTYYADSVKGRFTISRDNAKNTVYFQMNSLKPEDTAFYYCAARYQPGGFSRYDYYYWGQGTQVTVSS | high polyreactivity
15 | QVQLVESGGGLVQAGGSLRLSCAASGSTFQRYAMGWYRQAPGKERELVAAISDGGSTKYADYVKGRFTISRDNAKNTVYLQMNRLKPEDTAVYYCAANYLSRYDYWGQGTQVTVSS | low polyreactivity
16 | QVQLVESGGGLVQAGGSLRLSCAASGSTFQRYAMGWYRQAPGKERELVAAISSRGGSTYYADSVKGRFTISRDNAKNTVYLQMNSLKPEDTAVYYCAALGHLRYDYWGQGTQVTVSS | high polyreactivity
17 | QVQLVESGGGLVQAGGSLRLSCAASGSTFQSYAMGWSRPAPGKERELVAAISFSGGSTYYADSVKGRFTISRDHAKNTVYLQMNSLKPEDTAVYYCAADVAYVEYAYWGQGTQVTVSS | low polyreactivity
18 | QVQLVESGGGLVQAGGSLRLSCAASGSTFQTYAMGWYRQAPGKERELVASISYGVTTYYADSVKGRFTISRDNAKNTVYLQMNSLKPEDTAVYYCAREGYKWVYLSYGYWGQGTQVTVSS | low polyreactivity
19 | QVQLVESGGGLVQAGGSLRLSCAASGSTFQTYVMGWYRQAPGKERELVAAISSGGSTNYADSVKGRFTISRDNAKNTVYLQMISLKPEDTAVYYCAKRWPYFRRGKDGYWGQGTQVTVSS | low polyreactivity
20 | QVQLVESGGGLVQAGGSLRLSCAASGSTFQVNAMGWYRQAPGKERELVASISGGSSTNYADSVKGRFTISRDNAKNTVYFQMNSLKPEDTAVYYCAADYLSGLRVAYDYWGQGTQVTVSS | low polyreactivity
21 | QVQLVESGGGLVQAGGSLRLSCAASGSTFQVNAMGWYRQAPGQDRELVAAITYRTGRTYYADSVKGRCTISRDNAKNTGYLQMNSLKPEDTAVYYCAATAHSYYGVGMGYWGQGTQVTVSS | high polyreactivity
22 | QVQLVESGGGLVQAGGSLRLSCAASGSTFQVYAMGWYRQAPGKERELVAAIRYRDGNTYYADSVKGRFTISRDNAKNTVYLQMNSLKPEETAVYYCNARLYMPSGYRRSNGYESDYWGQGTQVTVSS | high polyreactivity

Row | Sequence | polyreactivity (PSR sort gate)
23 | QVQLVESGGGLVQAGGSLRLSCAASGSTFQYYPMGWYRQAPGKERELVAAISYRGSTYYADSVKGRFTISRDNAKNTVYLQMNRLKPEDTSVYYCAKGGTTWYWSGYRSIYFRYDYWGQGTQVTVSS | high polyreactivity
24 | QVQLVESGGGLVQAGGSLRLSCAASGSTFRANAMGWYRQAPGKERELVAAIRGTGSTYYADSVKGRFTISRDNAKNTVYLQMNSLKPEDTAVYYCAARPGYLYSKYNYWGQGTQVTVSS | high polyreactivity
25 | QVQLVESGGGLVQAGGSLRLSCAASGSTFRAYAMGWYRQAPGKERELVAAISSGGSTYYADSVKGRFTISRDNAKITVYLQMNCLKPEDTAVYHCAKGWYYVSPYGYRKGVYYWGQGTKVTVSS | high polyreactivity
26 | QVQLVESGGGLVQAGGSLRLSCAASGSTFRDNAMGWYRQAPGKERELVAAISRRGGNTYYADSVKGRFTISRDNAKNTVYLQMNSLKPEDTAVYYCAAEVKTSYSYTHDGYWGQGTQVTVSS | high polyreactivity
27 | QVQLVESGGGLVQAGGSLRLSCAASGSTFRDNAMGWYRQAPGKERELVAAITVIDGTTYYADSVKGRFTISRDYAKNTVYLQMNSLKPEDTAVYYCADDTIWYEYYYWGQGTQVTVSS | low polyreactivity
28 | QVQLVESGGGLVQAGGSLRLSCAASGSTFRENDMGWYRQAPGKERELVAALTFSGGSTYADSVKGRFTISRDNAKNTVYLQMNSLKPEDTAVYYCSADTLPAEFDYDYWGQGTQVTVSS | low polyreactivity
29 | QVQLVESGGGLVQAGGSLRLSCAASGSTFRFNAMGWYRQAPGKERELVAAITSTGSTYYADSVKGRFTISRDNAKNTVYLQMNSLKPEDTADYYCAATYPRYRATPRYYSWGQGTQVTVSS | high polyreactivity
30 | QVQLVESGGGLVQAGGSLRLSCAASGSTFRFNAMGWYRQAPGKERELVATISYSSDSTYYAYSVKVRFTISRDNAKNTVYLQMNSLKPEDTAVYYCAADSGYARFDYWGQGTQVTVSS | high polyreactivity
31 | QVQLVESGGGLVQAGGSLRLSCAASGSTFRFYAMGSYRQAPGKERELVASISRSGGSTYYADSVKGRFTISRDNAKNTVYLQMNSLKPEDTAVYYCAARILYHMDWGQGTQVTVSS | high polyreactivity
32 | QVQLVESGGGLVQAGGSLRLSCAASGSTFRFYAMGWYRQAPGKERELVAAINGSGGSTYYADSVKGRFTISRDIAKNSVYLQMNSLKPEDTAVYYCAVLYRYGYDYWGQGTQVTVSS | low polyreactivity
33 | QVQLVESGGGLVQAGGSLRLSCAASGSTFRFYAMGWYRQAPGKERELVAAISKSGGITYYADSVKGRFTISRDNAKNTVYLQMNSLKPEDTAVYSCATVGLLSNFYARFNYWGQGTQVTVSS | high polyreactivity
34 | QVQLVESGGGLVQAGGSLRLSCAASGSTFRFYAMGWYRQAPGKERELVAAISSRAGSTYYADSVKGRFTISRDNAKNTVYLQMNSLKPEDTAVYYCNARTYSYRGYNYWGQGTQVTVSS | high polyreactivity
35 | QVQLVESGGGLVQAGGSLRLSCAASGSTFRGNAMGWYRQAPGKERELVAAISESGTDTYYADSVKGRFTISRDNAKKTVYLLMNSLKPEDTAVYYCAKDYSGTYYAQYNYWGQGTQVTVSS | low polyreactivity
36 | QVQLVESGGGLVQAGGSLRLSCAASGSTFRGYAKGWNRQAPGKERELVAAISSRGARTHYADSVKGRFTISRDNAKNTVYLQMNSLKPEDTAVYYCAVGSPYYDGMDYWGQGTQVTVSS | low polyreactivity
37 | QVQLVESGGGLVQAGGSLRLSCAASGSTFRGYAMGRYRQAPGKERELVAAITRNGGSTYYADSVKGRFTISRDNAKNTVYLQMNSLKPEDTAVFYCAAAKRRTVGVKYTFDYWGQGTQVTVSS | high polyreactivity
38 | QVQLVESGGGLVQAGGSLRLSCAASGSTFRGYAMGWNRPAPGKETELVAGITKRGGSTYYADSVKGRFTISRDNAKNTVYLQMNSLKPEDTAVYYCAAGKHRQAYEHDYWGQGTQVTVSS | high polyreactivity
39 | QVQLVESGGGLVQAGGSLRLSCAASGSTFRGYAMGWYRHAPGKERELVAAITYISDSTYYADSVKGRFTISRDNAKNTVYLQMNSLKPEDTAVYYCIAYYDGDWRYTSQETGDHWGQGTQVTVSS | low polyreactivity
40 | QVQLVESGGGLVQAGGSLRLSCAASGSTFRGYAMGWYRQAPGKDRELVATISGSDGTTYYADSVQGRFTISRDNAKKTVYLQMNSLKPEDTAVYFCAAGETFEMYYWGQGTQVTVSS | low polyreactivity
41 | QVQLVESGGGLVQAGGSLRLSCAASGSTFRGYAMGWYRQAPGKEREFVAAISRRGGTTYYADSVKGRFTISRDNAKNTVYLQMNSLKPEDTAVYYCNKVYYQHYLAFDYWGQGTQVTVSS | high polyreactivity
42 | QVQLVESGGGLVQAGGSLRLSCAASGSTFRGYAMGWYRQAPGKEREIVAAISRRGGTTYYADSVKGRFTISRDNAKNTVYLQMNSLKPEDTAVYYCNKVYYQHYLAFDYWGQGTQVTVSS | high polyreactivity
43 | QVQLVESGGGLVQAGGSLRLSCAASGSTFRINAMGWYRQAPGKERELVADINSGGNTTYADSVKGRFTISRDNAKNTVYLQMNSLKPEDTAVYYCNAPYSFFWQQMNYWGQGTQVTVSS | low polyreactivity
